Assay results as given in patent publication US20190300590A1 (PROTAGONIST THERAPEUTICS, published 2019).
Like-named read-outs stand apart in the source and are kept apart here. Bridges are numbered along the chain shown (N, C = ends). [ ]: non-standard residue; d: D form. 2Nal = N[C@@H](Cc1ccc2ccccc2c1)C(=O)O; AEF = NCCOc1ccc(C[C@H](N)C(=O)O)cc1; αMeL = CC(C)C[C@](C)(N)C(=O)O; Pen = CC(C)(S)[C@H](N)C(=O)O; hLeu = CC(C)CC[C@H](N)C(=O)O; αMeK = C[C@](N)(CCCCN)C(=O)O; Ac6c = NC1(C(=O)O)CCCCC1; Abu = CC[C@H](N)C(=O)O; Ac4c = NC1(C(=O)O)CCC1; Ac3c = NC1(C(=O)O)CC1; Aib = CC(C)(N)C(=O)O; βAla = NCCC(=O)O

B1: Ac-CRTWQCYWSEFGTGE-NH2 (peptide)
peptide: Ac-CRTWQCYWSEFGTGE-NH2
modifications: disulfide 1-6
SMILES: CC(=O)N[C@H]1CSSC[C@@H](C(=O)N[C@@H](Cc2ccc(O)cc2)C(=O)N[C@@H](Cc2c[nH]c3ccccc23)C(=O)N[C@@H](CO)C(=O)N[C@@H](CCC(=O)O)C(=O)N[C@@H](Cc2ccccc2)C(=O)NCC(=O)N[C@H](C(=O)NCC(=O)N[C@@H](CCC(=O)O)C(N)=O)[C@@H](C)O)NC(=O)[C@H](CCC(N)=O)NC(=O)[C@H](Cc2c[nH]c3ccccc23)NC(=O)[C@H]([C@@H](C)O)NC(=O)[C@H](CCCNC(=N)N)NC1=O
B2: pyroglutamic acid-[Pen]-QTWQ[Pen]-[Phe(4-OMe)]-[2-Nal]-[α-MeLys]-[Lys(Ac)]-NG-NH2 (peptide)
peptide: EXQTWQXFXKKNG
modifications: N-terminal pyroglutamic acid; Pen-Pen disulfide; Phe(4-OMe); 2-Nal; α-MeLys; Lys(Ac); NH2
B3: Ac-CSTWQCYWSKQSGGS-NH2 (peptide)
peptide: Ac-CSTWQCYWSKQSGGS-NH2
modifications: disulfide 1-6
SMILES: CC(=O)N[C@H]1CSSC[C@@H](C(=O)N[C@@H](Cc2ccc(O)cc2)C(=O)N[C@@H](Cc2c[nH]c3ccccc23)C(=O)N[C@@H](CO)C(=O)N[C@@H](CCCCN)C(=O)N[C@@H](CCC(N)=O)C(=O)N[C@@H](CO)C(=O)NCC(=O)NCC(=O)N[C@@H](CO)C(N)=O)NC(=O)[C@H](CCC(N)=O)NC(=O)[C@H](Cc2c[nH]c3ccccc23)NC(=O)[C@H]([C@@H](C)O)NC(=O)[C@H](CO)NC1=O

Columns and labels:
Rat IL-23R_huFC [1] = target: T1, Rat IL-23R_huFC (rat, UniProt F1LX96 39-369); assay: rat IL-23R competitive binding ELISA
T1 sequence: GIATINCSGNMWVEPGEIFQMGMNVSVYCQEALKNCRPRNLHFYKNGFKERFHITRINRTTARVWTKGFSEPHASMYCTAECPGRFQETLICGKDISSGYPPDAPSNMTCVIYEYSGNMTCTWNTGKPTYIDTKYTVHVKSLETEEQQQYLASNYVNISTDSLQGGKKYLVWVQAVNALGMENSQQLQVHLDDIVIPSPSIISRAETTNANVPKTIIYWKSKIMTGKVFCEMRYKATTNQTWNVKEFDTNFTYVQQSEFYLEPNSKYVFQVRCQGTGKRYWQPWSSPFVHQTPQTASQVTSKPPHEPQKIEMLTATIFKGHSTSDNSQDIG

[2] = target: T2, IL-23R on human cells (IL-23R-expressing DB cells; human NK cells) (human, UniProt Q5VWK5 24-629); assay: cell-based or functional assay
T2 sequence (looked up): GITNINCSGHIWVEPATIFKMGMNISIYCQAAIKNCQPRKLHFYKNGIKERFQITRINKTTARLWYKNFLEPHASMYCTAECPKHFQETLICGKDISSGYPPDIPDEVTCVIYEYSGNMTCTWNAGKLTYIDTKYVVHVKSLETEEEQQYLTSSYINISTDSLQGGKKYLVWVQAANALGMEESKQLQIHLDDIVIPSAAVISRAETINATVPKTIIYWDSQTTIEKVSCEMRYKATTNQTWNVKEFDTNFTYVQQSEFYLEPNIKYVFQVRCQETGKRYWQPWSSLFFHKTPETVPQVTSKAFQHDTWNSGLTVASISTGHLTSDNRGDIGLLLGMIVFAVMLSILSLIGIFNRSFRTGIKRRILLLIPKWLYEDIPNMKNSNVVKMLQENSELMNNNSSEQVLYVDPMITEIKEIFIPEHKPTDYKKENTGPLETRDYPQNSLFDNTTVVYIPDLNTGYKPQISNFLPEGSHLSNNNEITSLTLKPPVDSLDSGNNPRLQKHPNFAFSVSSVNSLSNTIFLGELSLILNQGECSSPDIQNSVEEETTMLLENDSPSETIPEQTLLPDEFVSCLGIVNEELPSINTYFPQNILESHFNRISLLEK

[3] = target: T2, IL-23R on human cells …; assay: cell-based or functional assay; remark: listed apart in the source
IL-23R on DB cells = target: T3, IL-23R on DB cells (human, UniProt Q5VWK5 24-629); assay: cell-based or functional assay
T3 sequence (looked up): T2 sequence (looked up)

Rat IL-23R_huFC [4] = target: T1, Rat IL-23R_huFC; assay: rat IL-23R competitive binding ELISA; remark: listed apart in the source
IL23R_huFC = target: T4, IL23R_huFC (human, UniProt Q5VWK5 24-353); assay: IL23-IL23R competitive binding ELISA
T4 sequence (looked up): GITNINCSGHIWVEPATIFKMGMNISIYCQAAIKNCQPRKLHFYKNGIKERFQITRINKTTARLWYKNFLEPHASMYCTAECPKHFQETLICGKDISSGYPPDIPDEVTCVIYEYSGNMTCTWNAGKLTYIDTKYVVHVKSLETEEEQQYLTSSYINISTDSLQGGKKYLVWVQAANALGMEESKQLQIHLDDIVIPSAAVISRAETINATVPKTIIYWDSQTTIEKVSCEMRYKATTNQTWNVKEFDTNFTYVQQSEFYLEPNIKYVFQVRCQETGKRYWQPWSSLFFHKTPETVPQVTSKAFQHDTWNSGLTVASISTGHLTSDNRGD

Binder | IC50 (Rat IL-23R_huFC [1]) | IC50 (IL23R_huFC) | other results
CQTWQCYWXENG (Ac; α-MeOrn; NH2) [Ac-CQTWQCYW-[α-MeOrn]-ENG-NH2] | 64 nM | – | –
Ac-[Abu]QTWQC[AEF][2Nal][αMeL]QN[βAla]-NH2 (thioether 1-6) [Ac-Cyclo-[[Abu]-QTWQC]-[Phe[4-(2-aminoethoxy)]]-[2-Nal]-[α-MeLeu]-QN-[βAla]-NH2] | – | – | pStat3 HTRF IC50 [2]: < 10 nM; NK cell assay IC50 (IFNγ) [3]: < 25 nM
Ac-[Abu]QTWQC[AEF][2Nal][Ac3c]ENN-NH2 (thioether 1-6) [Ac-Cyclo-[[Abu]-QTWQC]-[Phe[4-(2-aminoethoxy)]]-[2-Nal]-]Acpc]-ENN-NH2] | – | – | NK cell assay IC50 (IFNγ) [3]: < 25 nM
Ac-CQTWQCYW[Aib]ENG-NH2 (disulfide 1-6 (inferred)) [Ac-CQTWQCYW-[Aib]-ENG-NH2] | 34 nM | – | –
Ac-CQTWQCYW[hLeu]EPG-NH2 (not fully specified (bridges); cysteine pairing not given here) [Ac-CQTWQCYW-[hLeu]-EPG-NH2] | 140 nM | – | –
Ac-CQTWQCYW[hLeu]K(Ac)NG-NH2 (cysteine pairing not given here) [Ac-CQTWQCYW-[hLeu]-[Lys(Ac)]-NG-NH2] | 32 nM | – | –
Ac-CTTWQCYW[hLeu]ENG-NH2 (disulfide 1-6 (inferred)) [Ac-CTTWQCYW-[Leu]-ENG-NH2] | 28 nM | – | –
Ac-CQTWQCYW[hLeu]ENGG-NH2 (cysteine pairing not given here) [Ac-CQTWQCYW-[hLeu]-ENGG-NH2] | 140 nM | – | –
Ac-FCQTWQCYW[hLeu]ENG-NH2 (cysteine pairing not given here) [Ac-FCQTWQCYW-[hLeu]-ENG-NH2] | 25 nM | – | –
Ac-LCQTWQCYW[hLeu]ENG-NH2 (cysteine pairing not given here) [Ac-LCQTWQCYW-[hLeu]-ENG-NH2] | 26 nM | – | –
Ac-CSTWECYWHTYG-NH2 (disulfide 1-6) [Ac-CSTWECYWHTYG-NH2] | 286 nM | – | –
FXQTWQCFXXENN (as bracketed in name; thioether cyclo) | – | – | NK cell assay IC50 (IFNγ) [3]: < 25 nM
Ac-[Abu]QTWQC[AEF][2Nal][Ac4c]ENN-NH2 (thioether 1-6) [Ac-Cyclo-[[Abu]-QTWQC]-[Phe[4-(2-aminoethoxy)]]-[2-Nal]-[Acbc]-ENN-NH2] | – | – | pStat3 HTRF IC50 [2]: < 10 nM; NK cell assay IC50 (IFNγ) [3]: < 25 nM
Ac-[Abu]QTWQC[AEF][2Nal][Ac6c]ENN-NH2 (thioether 1-6) [Ac-Cyclo-[[Abu]-QTWQC]-[Phe[4-(2-aminoethoxy)]]-[2-Nal]-[Achc]-ENN-NH2] | – | – | pStat3 HTRF IC50 [2]: < 10 nM; NK cell assay IC50 (IFNγ) [3]: < 25 nM
CQTWQCYWXENG (Ac; 3-Pal; NH2) [Ac-CQTWQCYW-[3-Pal]-ENG-NH2] | 20 nM | – | –
Ac-CQTWQCYW[hLeu]ENE-NH2 (disulfide 1-6 (inferred)) [Ac-CQTWQCYW-[hLeu]-ENE-NH2] | 1000 nM | – | –
Ac-CQTWQCYW[hLeu]EEG-NH2 (disulfide 1-6 (inferred)) [Ac-CQTWQCYW-[hLeu]-EEG-NH2] | 53 nM | – | –
Ac-CRTWQCYWLRLGDEG-NH2 (disulfide 1-6 (inferred)) [Ac-CRTWQCYWLRLGDEG-NH2] | 483 nM | – | –
XQTWQXYWLENG (Ac; Pen-Pen disulfide; α-MeLeu; NH2) [Ac-[Pen]-QTWQ-[Pen]-Y-[α-MeLeu]-ENG-NH2] | – | 25 to 100 nM | pStat3 HTRF IC50 (IL-23R on DB cells): 10 to 25 nM; IC50 (Rat IL-23R_huFC [4]): 100 to 1000 nM
XQTWQXYWXENG (Ac; Pen-Pen disulfide; α-MeOrn; NH2) [Ac-[Pen]-QTWQ-[Pen]-YW-[α-MeOrn]-ENG-NH2] | – | 100 to 1000 nM | IC50 (Rat IL-23R_huFC [4]): 100 to 1000 nM
B1 | 778 nM | – | –
B2 | – | 25 to 100 nM | pStat3 HTRF IC50 (IL-23R on DB cells): < 10 nM; IC50 (Rat IL-23R_huFC [4]): 25 to 100 nM
XQTWQXYXKENG (Ac; Pen-Pen disulfide; 2-Nal; α-MeLys; NH2) [Ac-[Pen]-QTWQ-[Pen]-Y-[2-Nal]-[α-MeLys]-ENG-NH2] | – | 25 to 100 nM | pStat3 HTRF IC50 (IL-23R on DB cells): < 10 nM; IC50 (Rat IL-23R_huFC [4]): 100 to 1000 nM
XQTWQXFXKENA (Ac; Pen-Pen disulfide; Phe[4-(2-aminoethoxy)]; 2-Nal; α-MeLys; NH2) [Ac-[Pen]-QTWQ-[Pen]-[Phe[4-(2-aminoethoxy)]-[2-Nal]-[α-MeLys]-ENA-NH2] | – | < 10 nM | pStat3 HTRF IC50 (IL-23R on DB cells): < 10 nM; IC50 (Rat IL-23R_huFC [4]): 25 to 100 nM
XQTWQXFXLKNN (Ac; Pen-Pen disulfide; Phe[4-(2-aminoethoxy)]; 2-Nal; α-MeLeu; Lys(Ac); NH2) [Ac-[Pen]-QTWQ-[Pen]-[Phe[4-(2-aminoethoxy)]-[2-Nal]-[α-MeLeu]-[Lys(Ac)]-NN-NH2] | – | < 10 nM | pStat3 HTRF IC50 (IL-23R on DB cells): < 10 nM; IC50 (Rat IL-23R_huFC [4]): < 10 nM
Ac-[Pen]TTWQ[Pen][AEF][2Nal][αMeK]ENG-NH2 (disulfide 1-6 (inferred)) [Ac-[Pen]-TTWQ-[Pen]-[Phe[4-(2-aminoethoxy)]-[2-Nal]-[α-MeLys]-ENG-NH2] | – | 10 to 25 nM | pStat3 HTRF IC50 (IL-23R on DB cells): < 10 nM
XQTWQXFXKENG (Ac; Pen-Pen disulfide; Phe(4-OMe); 2-Nal; α-MeLys; NH2) [Ac-[Pen]-QTWQ-[Pen]-[Phe(4-OMe)]-[2-Nal]-[α-MeLys]-ENG-NH2] | – | 25 to 100 nM | IC50 (Rat IL-23R_huFC [4]): 100 to 1000 nM
XQTWQXFXLQNN (Ac; Pen-Pen disulfide; Phe[4-(2-aminoethoxy)]; 2-Nal; α-MeLeu; NH2) [Ac-[Pen]-QTWQ-[Pen]-[Phe[4-(2-aminoethoxy)]-[2-Nal]-[α-MeLeu]-QNN-NH2] | – | < 10 nM | pStat3 HTRF IC50 (IL-23R on DB cells): < 10 nM; IC50 (Rat IL-23R_huFC [4]): < 10 nM
Ac-[Pen]STWQ[Pen][AEF][2Nal][αMeK]ENG-NH2 (disulfide 1-6 (inferred)) [Ac-[Pen]-STWQ-[Pen]-[Phe[4-(2-aminoethoxy)]-[2-Nal]-[α-MeLys]-ENG-NH2] | – | 10 to 25 nM | pStat3 HTRF IC50 (IL-23R on DB cells): < 10 nM
B3 | 204 nM | – | –
